# Test results as given in patent US20230002480A1.
# What was measured:
# Assay in all cases: cell-based or functional assay
# [1] = target: HIV-1 Env of pseudovirus 0260.v5.c36 (HIV-1)
# [2] = target: HIV-1 Env of pseudovirus 1054_07_TC4_1499 (HIV-1)
# [3] = target: HIV-1 Env of pseudovirus 231966.c02 (HIV-1)
# [4] = target: HIV-1 Env of pseudovirus 3817.v2.c59 (HIV-1)
# [5] = target: HIV-1 Env of pseudovirus 6244_13_B5_4576 (HIV-1)
# [6] = target: HIV-1 Env of pseudovirus 6535.3 (HIV-1)
# [7] = target: HIV-1 Env of pseudovirus A07412M1.vrc12 (HIV-1)
# [8] = target: HIV-1 Env of pseudovirus BJOX010000.06.2 (HIV-1)
# [9] = target: HIV-1 Env of pseudovirus BJOX025000.01.1 (HIV-1)
# [10] = target: HIV-1 Env of pseudovirus BJOX028000.10.3 (HIV-1)
# [11] = target: HIV-1 Env of pseudovirus C1080.c03 (HIV-1)
# [12] = target: HIV-1 Env of pseudovirus C3347.c11 (HIV-1)
# [13] = target: HIV-1 Env of pseudovirus CAAN5342.A2 (HIV-1)
# [14] = target: HIV-1 Env of pseudovirus CNE53 (HIV-1)
# [15] = target: HIV-1 Env of pseudovirus CNE8 (HIV-1)
# [16] = target: HIV-1 Env of pseudovirus Ce1086_B2 (HIV-1)
# [17] = target: HIV-1 Env of pseudovirus Ce1172_H1 (HIV-1)
# [18] = target: HIV-1 Env of pseudovirus Ce1176_A3 (HIV-1)
# [19] = target: HIV-1 Env of pseudovirus Ce2010_F5 (HIV-1)
# [20] = target: HIV-1 Env of pseudovirus HIV-0013095-2.11 (HIV-1)
# [21] = target: HIV-1 Env of pseudovirus HIV-001428-2.42 (HIV-1)
# [22] = target: HIV-1 Env of pseudovirus HIV-16845-2.22 (HIV-1)
# [23] = target: HIV-1 Env of pseudovirus MS208.A1 (HIV-1)
# [24] = target: HIV-1 Env of pseudovirus PVO.4 (HIV-1)
# [25] = target: HIV-1 Env of pseudovirus Q23.17 (HIV-1)
# [26] = target: HIV-1 Env of pseudovirus Q769.d22 (HIV-1)
# [27] = target: HIV-1 Env of pseudovirus QH0692.42 (HIV-1)
# [28] = target: HIV-1 Env of pseudovirus R1166.c01 (HIV-1)
# [29] = target: HIV-1 Env of pseudovirus R3265.c06 (HIV-1)
# [30] = target: HIV-1 Env of pseudovirus REJO4541.67 (HIV-1)
# [31] = target: HIV-1 Env of pseudovirus SC05_8C11_2344 (HIV-1)
# [32] = target: HIV-1 Env of pseudovirus T278-50 (HIV-1)
# [33] = target: HIV-1 Env of pseudovirus TRO.11 (HIV-1)
# [34] = target: HIV-1 Env of pseudovirus WEAU_d15_410_787 (HIV-1)
# [35] = target: HIV-1 Env of pseudovirus ZM233M.PB6 (HIV-1)
# [36] = target: HIV-1 Env of pseudovirus ZM247v1(Rev-) (HIV-1)
substance,measurement,setting,value
PGT128 (antibody),IC50,[1],0.058 µg/mL
same,IC80,[1],0.162 µg/mL
same,IC50,[2],0.035 µg/mL
same,IC80,[2],0.312 µg/mL
same,"IC50, titer in TZM.bl cells",[3],3.2 µg/mL
same,"IC80, titer in TZM.bl cells",[3],> 50 µg/mL
same,"IC50, titer in TZM.bl cells",[4],0.003 µg/mL
same,"IC80, titer in TZM.bl cells",[4],0.023 µg/mL
same,IC50,[5],0.02 µg/mL
same,IC80,[5],0.076 µg/mL
same,IC50,[6],0.004 µg/mL
same,IC80,[6],0.016 µg/mL
same,"IC50, titer in TZM.bl cells",[7],> 50 µg/mL
same,"IC80, titer in TZM.bl cells",[7],> 50 µg/mL
same,"IC50, titer in TZM.bl cells",[8],4.82 µg/mL
same,"IC80, titer in TZM.bl cells",[8],> 50 µg/mL
same,"IC50, titer in TZM.bl cells",[9],> 50 µg/mL
same,"IC80, titer in TZM.bl cells",[9],> 50 µg/mL
same,"IC50, titer in TZM.bl cells",[10],0.024 µg/mL
same,"IC80, titer in TZM.bl cells",[10],0.07 µg/mL
same,"IC50, titer in TZM.bl cells",[11],0.283 µg/mL
same,"IC80, titer in TZM.bl cells",[11],2.06 µg/mL
same,"IC50, titer in TZM.bl cells",[12],0.001 µg/mL
same,"IC80, titer in TZM.bl cells",[12],0.007 µg/mL
same,IC50,[13],0.514 µg/mL
same,IC80,[13],> 50 µg/mL
same,IC50,[14],0.01 µg/mL
same,IC80,[14],0.049 µg/mL
same,"IC50, titer in TZM.bl cells",[15],0.019 µg/mL
same,"IC80, titer in TZM.bl cells",[15],0.052 µg/mL
same,IC50,[16],> 50 µg/mL
same,IC80,[16],> 50 µg/mL
same,IC50,[17],0.013 µg/mL
same,IC80,[17],0.038 µg/mL
same,IC50,[18],0.009 µg/mL
same,IC80,[18],0.026 µg/mL
same,IC50,[19],> 50 µg/mL
same,IC80,[19],> 50 µg/mL
same,IC50,[20],> 50 µg/mL
same,IC80,[20],> 50 µg/mL
same,IC50,[21],0.026 µg/mL
same,IC80,[21],0.095 µg/mL
same,IC50,[22],0.181 µg/mL
same,IC80,[22],0.834 µg/mL
same,IC50,[23],> 50 µg/mL
same,IC80,[23],> 50 µg/mL
same,IC50,[24],0.011 µg/mL
same,IC80,[24],0.028 µg/mL
same,IC50,[25],0.009 µg/mL
same,IC80,[25],0.024 µg/mL
same,IC50,[26],> 50 µg/mL
same,IC80,[26],> 50 µg/mL
same,IC50,[27],0.029 µg/mL
same,IC80,[27],0.081 µg/mL
same,"IC50, titer in TZM.bl cells",[28],> 50 µg/mL
same,"IC80, titer in TZM.bl cells",[28],> 50 µg/mL
same,"IC50, titer in TZM.bl cells",[29],> 50 µg/mL
same,"IC80, titer in TZM.bl cells",[29],> 50 µg/mL
same,IC50,[30],> 50 µg/mL
same,IC80,[30],> 50 µg/mL
same,IC50,[31],0.017 µg/mL
same,IC80,[31],0.041 µg/mL
same,"IC50, titer in TZM.bl cells",[32],0.031 µg/mL
same,"IC80, titer in TZM.bl cells",[32],0.089 µg/mL
same,IC50,[33],0.019 µg/mL
same,IC80,[33],0.045 µg/mL
same,IC50,[34],0.032 µg/mL
same,IC80,[34],0.153 µg/mL
same,IC50,[35],> 50 µg/mL
same,IC80,[35],> 50 µg/mL
same,IC50,[36],0.021 µg/mL
same,IC80,[36],0.081 µg/mL
PGT145 (antibody),IC50,[1],> 50 µg/mL
same,IC80,[1],> 50 µg/mL
same,IC50,[2],> 50 µg/mL
same,IC80,[2],> 50 µg/mL
same,"IC50, titer in TZM.bl cells",[3],< 0.001 µg/mL
same,"IC80, titer in TZM.bl cells",[3],0.01 µg/mL
same,"IC50, titer in TZM.bl cells",[4],> 50 µg/mL
same,"IC80, titer in TZM.bl cells",[4],> 50 µg/mL
same,IC50,[5],7.27 µg/mL
same,IC80,[5],44.5 µg/mL
same,IC50,[6],> 50 µg/mL
same,IC80,[6],> 50 µg/mL
same,"IC50, titer in TZM.bl cells",[7],0.002 µg/mL
same,"IC80, titer in TZM.bl cells",[7],0.023 µg/mL
same,"IC50, titer in TZM.bl cells",[8],> 50 µg/mL
same,"IC80, titer in TZM.bl cells",[8],> 50 µg/mL
same,"IC50, titer in TZM.bl cells",[9],6.63 µg/mL
same,"IC80, titer in TZM.bl cells",[9],> 50 µg/mL
same,"IC50, titer in TZM.bl cells",[10],> 50 µg/mL
same,"IC80, titer in TZM.bl cells",[10],> 50 µg/mL
same,"IC50, titer in TZM.bl cells",[11],0.024 µg/mL
same,"IC80, titer in TZM.bl cells",[11],0.146 µg/mL
same,"IC50, titer in TZM.bl cells",[12],0.005 µg/mL
same,"IC80, titer in TZM.bl cells",[12],0.044 µg/mL
same,IC50,[13],6.67 µg/mL
same,IC80,[13],25.5 µg/mL
same,IC50,[14],0.006 µg/mL
same,IC80,[14],0.084 µg/mL
same,"IC50, titer in TZM.bl cells",[15],0.272 µg/mL
same,"IC80, titer in TZM.bl cells",[15],2.24 µg/mL
same,IC50,[16],> 50 µg/mL
same,IC80,[16],> 50 µg/mL
same,IC50,[17],0.26 µg/mL
same,IC80,[17],2.06 µg/mL
same,IC50,[18],> 50 µg/mL
same,IC80,[18],> 50 µg/mL
same,IC50,[19],> 50 µg/mL
same,IC80,[19],> 50 µg/mL
same,IC50,[20],9.27 µg/mL
same,IC80,[20],> 50 µg/mL
same,IC50,[21],0.001 µg/mL
same,IC80,[21],0.083 µg/mL
same,IC50,[22],> 50 µg/mL
same,IC80,[22],> 50 µg/mL
same,IC50,[23],0.334 µg/mL
same,IC80,[23],18 µg/mL
same,IC50,[24],0.192 µg/mL
same,IC80,[24],0.87 µg/mL
same,IC50,[25],1.32 µg/mL
same,IC80,[25],> 50 µg/mL
same,IC50,[26],0.26 µg/mL
same,IC80,[26],25.5 µg/mL
same,IC50,[27],> 50 µg/mL
same,IC80,[27],> 50 µg/mL
same,"IC50, titer in TZM.bl cells",[28],2.27 µg/mL
same,"IC80, titer in TZM.bl cells",[28],17.9 µg/mL
same,"IC50, titer in TZM.bl cells",[29],0.037 µg/mL
same,"IC80, titer in TZM.bl cells",[29],0.227 µg/mL
same,IC50,[30],< 0.001 µg/mL
same,IC80,[30],0.001 µg/mL
same,IC50,[31],0.093 µg/mL
same,IC80,[31],0.248 µg/mL
same,"IC50, titer in TZM.bl cells",[32],10.3 µg/mL
same,"IC80, titer in TZM.bl cells",[32],> 50 µg/mL
same,IC50,[33],0.04 µg/mL
same,IC80,[33],0.118 µg/mL
same,IC50,[34],1.95 µg/mL
same,IC80,[34],31.5 µg/mL
same,IC50,[35],0.025 µg/mL
same,IC80,[35],0.68 µg/mL
same,IC50,[36],7.19 µg/mL
same,IC80,[36],> 50 µg/mL
